This is an account of results in patent publication US20180321243A1 (UNIVERSITY OF SASKATCHEWAN, published 2018).

Test [1] deals with T1, recombinant human ADAM10 (Biomatik, #RPU140010) (human, UniProt O14672 214-672, limits assumed).
T1 construct: The source and catalogue number are printed for the phage display selections only; also called purified human ADAM10; Disintegrin and metalloproteinase domain-containing protein 10
T1 sequence (looked up): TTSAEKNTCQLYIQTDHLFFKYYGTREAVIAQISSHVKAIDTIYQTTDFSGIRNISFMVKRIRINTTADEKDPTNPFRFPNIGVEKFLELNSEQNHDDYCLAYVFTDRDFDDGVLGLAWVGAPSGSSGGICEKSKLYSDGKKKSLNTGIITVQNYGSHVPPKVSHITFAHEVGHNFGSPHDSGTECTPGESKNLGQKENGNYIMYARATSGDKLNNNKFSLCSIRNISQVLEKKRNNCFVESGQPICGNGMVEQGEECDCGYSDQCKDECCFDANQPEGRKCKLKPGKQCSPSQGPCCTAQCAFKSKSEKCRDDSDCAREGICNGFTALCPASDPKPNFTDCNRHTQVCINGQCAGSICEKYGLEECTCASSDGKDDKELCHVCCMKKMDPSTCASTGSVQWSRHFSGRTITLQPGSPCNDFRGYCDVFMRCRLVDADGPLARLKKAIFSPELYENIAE
As to the kind of experiment: BLI (Octet RED384), unlabeled scFv coupled to AR2G biosensors, ADAM10 at 500 and 166 nM, global fit. The protocol:
BLI sensorgrams for scFv-B2 (A), scFv-B7 (B), and scFv-B9 (C) show real-time binding curves in nanometers of optical thickness versus time (sec). […] A global best fit (solid red line) for each curve was calculated by ForteBio Data Anaylsis 7.1 software and used to determine the kinetic parameters in Table 5.
(§1) Biolayer interferometry was performed with an Octet RED384 instrument (ForteBio). The initial kinetics with unlabeled scFv was performed through coupling to AR2G biosensors per manufacturer instructions (ForteBio). These biosensors were then dipped into ADAM10 (500 nM and 166 nM) to generate the association curves, after which the sensors were moved into buffer alone to generate the corresponding dissociation curves. ForteBio Data Analysis 7.0 software was used for global curve fitting to generate the kinetic data. The kinetic analysis for biotin-conjugated scFvs was performed similarly, except that streptavidin biosensors (ForteBio) were used for immobilization, along with three ADAM10 concentrations (1000 nM, 500 nM, 166 nM). An equal loading (i.e. optical thickness) of the biosensors was performed in both kinetic experiments.
A general note: Biolayer interferometry detects binding as a change in optical thickness at a sensor tip.

In test [2] the target is T2, bovine serum albumin (BSA) (bovine, UniProt P02769 25-607).
T2 construct: Negative control / background protein in the phage ELISA
T2 sequence (P02769 25-607 limits assumed): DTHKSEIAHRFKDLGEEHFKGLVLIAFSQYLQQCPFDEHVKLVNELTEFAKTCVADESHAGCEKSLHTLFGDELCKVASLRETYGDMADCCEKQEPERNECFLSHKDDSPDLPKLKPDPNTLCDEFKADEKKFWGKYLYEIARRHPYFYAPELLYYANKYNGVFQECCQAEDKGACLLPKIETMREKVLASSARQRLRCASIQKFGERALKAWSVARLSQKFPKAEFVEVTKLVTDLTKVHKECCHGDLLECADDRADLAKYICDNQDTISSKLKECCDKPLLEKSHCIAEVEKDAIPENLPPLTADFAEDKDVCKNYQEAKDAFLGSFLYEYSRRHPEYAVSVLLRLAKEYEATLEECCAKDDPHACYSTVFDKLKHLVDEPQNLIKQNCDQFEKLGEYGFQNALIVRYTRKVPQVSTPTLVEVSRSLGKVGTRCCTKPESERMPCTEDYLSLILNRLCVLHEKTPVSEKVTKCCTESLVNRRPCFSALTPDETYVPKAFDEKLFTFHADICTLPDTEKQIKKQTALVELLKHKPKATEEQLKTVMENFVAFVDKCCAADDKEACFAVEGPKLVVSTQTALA
In words: phage ELISA, scFv displayed on M13 phage, BSA negative control, duplicate 1. The protocol: (§2) A phage-based ELISA was performed as a semi-quantitative approach to initially validate scFv binding to ADAM10. ADAM10 was adsorbed to ELISA plates and purified phage displaying each of the scFv clones was tested for a binding signal compared to a negative control bovine serum albumin (BSA) protein.
(§3) Similar to the phage display screening methodology, ADAM10 was adsorbed to NUNC MaxiSorp Immunoplates and subsequently incubated with ˜10¹² purified phage displaying an scFv clone. An anti-phage-horseradish peroxidase secondary antibody was then used to generate binding signals for each clone in duplicate, which was measured by colour development at an optical density of 450 nm (O.D. 450 nm) using a tetramethylbenzidine substrate (ThermoScientific, #34028).

Test [3] addresses T2, bovine serum albumin (BSA). As to the kind of experiment: phage ELISA, scFv displayed on M13 phage, BSA negative control, duplicate 2. The protocol: as §2, §3
Test [4] has as its target T1, recombinant human ADAM10 (Biomatik, …). As to the kind of experiment: phage ELISA, ADAM10 signal over BSA signal. The protocol:
as §2, §3
(An ELISA detects its analyte on a solid surface through an enzyme-linked reagent.)

For test [5] the target is unchanged. In words: BLI (Octet RED384), biotin-labeled scFv on streptavidin biosensors, ADAM10 at 1000, 500 and 166 nM, global fit. The protocol: BLI sensorgrams for biotin-scFv-B2 (A), biotin-scFv-B7 (B), and biotin-scFv-B9 (C) show real-time binding curves in nanometers of optical thickness versus time (sec). […] A global best fit (solid red line) for each curve was calculated by ForteBio Data Anaylsis 7.1 software and used to determine the kinetic parameters in Table 6.
as §1

Test [6] shares this target. In words: phage ELISA, ADAM10 signal over BSA signal; underrepresentation because OD was above the detectable limit. The protocol:
as §2, §3

B1: scFv-B7 (scFv)
scFv: SDIQMTQSPSSLSASVGDRVTITCRASQGISNYLAWYQQKPGKAPKLLIYAASSLQSGVPSRFSGSRSGTDFTLTISSLQPEDFATYYCQQVSSWPLTFGQGTKVEIKGGGSGGGSGGGSGGGSEVQLVESGGGLVQPGGSLRLSCAASGFTFSSYGMHWVRQAPGKGLEWVAVISYDGSNKYYADSVKGRFTISRDNSKNTLYLQMNSLRAEDTAVYYCARYPPHGFDYWGQGTLVTVSS
notes: Synthetic human scFv, order VL (IgKV1-16 framework) - (G3S)4 linker - VH (IgHV3-30 framework); Expressed in E. coli BL-21 and purified by protein L chromatography
With B1, in test [1], the dissociation constant Kd worked out at 0.00752 µM, the koff was 9.3e-05 s⁻¹ and the kon is 12400 M⁻¹ s⁻¹. For the same molecule, the “Absorbance at O.D. 450 nm” value in test [2] came out at 0.084 OD 450 nm. In test [3], the “Absorbance at O.D. 450 nm” value was found to be 0.086 OD 450 nm. The “Average fold signal over background” value in test [4] came to 37 fold.

B2: biotin-scFv-B7 (scFv)
scFv: B1 scFv
modifications: covalently labeled with biotin by N-hydroxysuccinamide amine coupling (EZ-link NHS biotin); labeled residues not stated
notes: held on streptavidin biosensors in the BLI experiments; also called biotin-labeled scFv-B7
As for B2, in test [5], the dissociation constant Kd worked out at 0.021 µM, the koff was determined as 0.00109 s⁻¹ and the kon stood at 51900 M⁻¹ s⁻¹.

B3: scFv-B9 (scFv)
scFv: SDIQMTQSPSSLSASVGDRVTITCRASQGISNYLAWYQQKPGKAPKLLIYAASSLQSGVPSRFSGSRSGTDFTLTISSLQPEDFATYYCQQLYHPPLTFGQGTKVEIKGGGSGGGSGGGSGGGSEVQLVESGGGLVQPGGSLRLSCAASGFTFSSYGMHWVRQAPGKGLEWVAVISYDGSNKYYADSVKGRFTISRDNSKNTLYLQMNSLRAEDTAVYYCARYSPYHYSHSVSYYYYGFDVWGQGTLVTVSS
notes: as for B1
Regarding B3, in test [1], the dissociation constant Kd was determined as 0.00932 µM, the koff came to 0.000115 s⁻¹ and the association rate constant (kon) was found to be 12400 M⁻¹ s⁻¹. Also, the “Absorbance at O.D. 450 nm” value in test [2] was 0.075 OD 450 nm. In test [3], the “Absorbance at O.D. 450 nm” value was 0.082 OD 450 nm. Further, the “Average fold signal over background” value in test [4] is 42.1 fold.

B4: biotin-scFv-B9 (scFv)
scFv: B3 scFv
modifications: covalently labeled with biotin by N-hydroxysuccinamide amine coupling (EZ-link NHS biotin); labeled residues not stated
notes: held on streptavidin biosensors in the BLI experiments; also called biotin-labeled scFv-B9
As for B4, in test [5], the Kd was 0.0231 µM, the koff was found to be 0.00117 s⁻¹ and the kon is 50800 M⁻¹ s⁻¹.

B5: scFv-B2 (scFv)
scFv: SDIQMTQSPSSLSASVGDRVTITCRASQGISNYLAWYQQKPGKAPKLLIYAASSLQSGVPSRFSGSRSGTDFTLTISSLQPEDFATYYCQQSYYLPLTFGQGTKVEIKGGGSGGGSGGGSGGGSEVQLVESGGGLVQPGGSLRLSCAASGFTFSSYGMHWVRQAPGKGLEWVAVISYDGSNKYYADSVKGRFTISRDNSKNTLYLQMNSLRAEDTAVYYCARWPAHFSHSHSSYYYYGFDVWGQGTLVTVSS
notes: as for B1
Consider B5, for which, in test [1], the Kd is 0.0146 µM, the dissociation rate constant (koff) is 0.000187 s⁻¹ and the on-rate (kon) was 12800 M⁻¹ s⁻¹. For the same molecule, the “Average fold signal over background” value in test [6] is more than 45.7 fold. In addition, in test [2], the “Absorbance at O.D. 450 nm” value stood at 0.096 OD 450 nm. The “Absorbance at O.D. 450 nm” value in test [3] worked out at 0.079 OD 450 nm.

B6: biotin-scFv-B2 (scFv)
scFv: B5 scFv
modifications: covalently labeled with biotin by N-hydroxysuccinamide amine coupling (EZ-link NHS biotin); labeled residues not stated
notes: held on streptavidin biosensors in the BLI experiments; also called biotin-labeled scFv-B2
B6: in test [5], the equilibrium dissociation constant (Kd) was determined as 0.022 µM, the off-rate constant (koff) came to 0.00103 s⁻¹ and the kon came out at 46800 M⁻¹ s⁻¹.

As a reminder, the Kd is a measure of binding affinity in units of concentration. One may read the koff as a measure of how fast the partners let go of each other. Broadly, the kon is the rate constant with which the complex forms.
